Here are results for 1 sequence from paper PMC4027180.

The subject of this data set is Stf76 (Sulfolobus islandicus plasmid-virus pSSVx). In words: ITC. The settings on record: EMSA: 20 mM Tris-acetate pH 8.0, 50 mM K acetate, 10 mM Mg acetate, 1 mM DTT, 5% glycerol, 1 ug salmon sperm DNA, 50 C protein pre-incubation, binding 37 C ….

As for “GGAAACAGTATTAATAAAGTGTTAATCCTATTACCC (double strand) [probe A' (35 bp-site A)]”, the Kd is 40 nM.
